Assay results reported in the supplement of paper PMC10567573.

B1: WEE1 (parent)
chain: INPFTPDSLLLHSSGQCRRRKRTY
B2: HESX1 (parent)
chain: HVPNPPSGISFPSVVDHPMPEERA

Variants of: B1
Assay: protein stability index of a GFP-peptide fusion (GPS, HEK-293T) (PSI 1-6); higher = more stable
Conditions: c terminus: a fixed tail appended
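Further: lentivirally expressed fusions sorted by FACS into six bins by GFP to DsRed ratio, PSI derived from sequencing read proportions per bin multiplied by bin number.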

Protein stability index: each site, then its substitutions
S13: Y 3.29; F 2.3; K 3.69; D 4.08; P 3.63; I 2.85; L 2.64; C 2.21; G 3.17; M 2.84; H 4.14; V 2.61; E 4.01; N 3.74; Q 3.44; A 2.6; W 2.54; T 3.74; R 3.12
H12: Q 2.94; L 2.86; S 3.87; W 2.19; R 3.59; N 3.19; F 3.03; A 3.61; P 3.4; G 3.18; M 3.32; I 3.6; E 4.06; C 2.57; T 3.45; Y 2.89; K 3.54
S8: A 3.42; C 2.73; Q 3.73; N 3.75; T 2.81; M 2.75; L 2.82; R 2.71; Y 2.65; D 4; E 4.08; I 2.6; F 2.5; P 2.77; H 3.83; K 3.35; G 3.44; W 3.5; V 3.25
P6: K 3.26; F 2.64; E 3.71; G 3.58; T 3.2; R 3.02; Q 3.09; A 4; N 4.07; M 2.52; H 3.18; C 3.04; W 2.21; Y 2.56; S 3.61; D 3.87; I 2.79; L 2.06; V 2.07
Q16: K 3.69; I 3.56; S 3.61; G 3.5; C 2.8; W 2.51; T 3.41; E 3.69; Y 3.52; H 3.06; L 2.81; F 2.65; A 3.31; P 3.92; D 3.45; V 2.97; R 3.95; N 4.03; M 2.92
D7: T 3.51; H 2.69; Q 3.52; I 2.55; E 3.6; G 2.24; A 3.13; Y 3.27; C 2.46; V 2.63; S 3.14; R 3.39; K 3.31; F 2.12; L 2.73; N 2.41; P 3.09; M 3.12; W 3.99
C17: E 4.09; P 4.37; I 4.01; D 4.42; K 4.12; V 3.22; A 3.64; G 3.69; S 4; M 4.1; H 3.44; L 4; N 3.85; T 4.03; Q 4.4; F 3.06; R 3.16
F4: W 3.87; Q 4.22; I 3.79; V 4.08; G 4.05; S 4.18; A 4.11; D 3.99; R 3.77; L 3.2; K 4.27; E 4.48; T 4.38; H 4.25; C 3.67; Y 3.31; N 4.08; P 4.58; M 4.04
N2: E 3.93; H 3.19; G 3.48; S 3.54; M 3.08; Y 2.55; T 3.59; L 2.37; I 2.36; F 2.35; V 3.39; Q 3.57; P 3.29; A 3.09; C 3.69; K 2.83; R 2.9; W 2.39; D 4.16
P3: Q 3.35; V 2.71; I 2.69; H 3.93; E 3.44; N 3.12; C 3.41; A 3.21; R 3.4; M 2.99; Y 2.38; F 2.33; S 3.51; D 3.33; K 3.1; G 3.11; W 1.3; T 3.06; L 2.61
S14: A 3.3; Q 3.89; D 3.94; C 2.41; N 3.61; E 4.31; Y 2.36; K 2.98; H 2.93; G 2.82; I 3.16; T 3.37; R 3.81; V 2.62; L 2.35; W 2.46; M 2.42; F 2.51; P 3.54
L11: A 3.76; C 3.75; K 4.2; M 3.94; Y 3.75; S 3.96; D 4.11; P 4.55; H 3.47; G 3.95; V 3.04; Q 3.39; E 4.42; W 2.99; R 3.38; F 3.01; T 3.54; N 3.92; I 3.97
G15: H 2.72; A 3.71; E 3.41; C 2.26; K 3.85; R 4.12; T 3.21; I 2.92; F 1.99; N 3.89; Y 2.9; M 2.84; W 2.54; S 3.02; D 3.39; P 3.05; L 3.56; V 2.79; Q 3.72
T5: P 2.95; W 2.51; I 2.48; C 2.87; D 4.01; S 3.23; Q 3.78; A 3.93; E 3.98; K 3.45; G 3.76; V 3.71; M 2.89; F 2.67; H 3.33; Y 2.93; N 3.24; R 3.41; L 3.04
I1: Y 3.05; T 3.87; H 3.89; E 3.6; F 2.73; S 3.52; D 4.03; G 3.81; K 3.62; R 4.02; P 4.36; V 3.55; N 4.17; L 3.19; Q 3.95; C 3.17; W 3.83; M 3.33; A 4.07
L10: Q 3.5; N 3.85; P 4.07; V 3.81; T 4.03; M 3.38; C 3.68; I 3.61; D 3.9; W 3.43; A 3.96; F 3.42; K 3.2; R 3.76; Y 2.89; G 3.83; H 4.01; E 3.41; S 3.88
L9: W 3.32; H 4.06; C 3.35; Y 2.63; K 3.42; F 2.94; N 3.83; R 3.74; P 3.96; Q 3.68; E 3.96; S 4.06; D 4.2; A 3.61; M 3.35; T 3.67; G 4.28; I 3.25; V 3.76

Variants of: B2
Assay: as above
Conditions: c terminus: a fixed tail appended

Protein stability index, by site and new letter:
A24: V 2.98; K 2.63; I 2.36; Q 2.38; Y 2.13; G 2.33; T 2.87; W 1.91; P 2.98; N 2.74; H 2.65; S 2.5; L 2.32; M 2.77; R 2.87
